# According to patent US20210253698A1 (AFFIMED, published 2021):
# T1: B-cell maturation antigen (BCMA) (human, UniProt Q02223 1-54, limits assumed)
# T1 construct: also called CD269; TNFRSF17
# T1 sequence (looked up): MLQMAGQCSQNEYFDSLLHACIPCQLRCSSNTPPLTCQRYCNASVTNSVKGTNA
# B1: CD16A/BCMA antibody II (bispecific antibody)
# TandAb polypeptide VH BCMA-VL CD16A-VH CD16A-VL BCMA: EVQLLESGGGLVQPGGSLRLSCAASGFTFSNYDMAWVRQAPGKGLEWVSSISTRGDITSYRDSVKGRFTISRDNSKNTLYLQMNSLRAEDTAVYYCARQDYYTDYMGFAYWGQGTLVTVSSGGSGGSGGSGGSSYVLTQPSSVSVAPGQTATISCGGHNIGSKNVHWYQQRPGQSPVLVIYQDNKRPSGIPERFSGSNSGNTATLTISGTQAMDEADYYCQVWDNYSVLFGGGTKLTVLGGSQVQLVQSGAEVKKPGESLKVSCKASGYTFTSYYMHWVRQAPGQGLEWMGAIEPMYGSTSYAQKFQGRVTMTRDTSTSTVYMELSSLRSEDTAVYYCARGSAYYYDFADYWGQGTLVTVSSGGSGGSGGSGGSAIQMTQSPSSLSASVGDRVTITCRASEDIYNGLAWYQQKPGKAPKLLIYGASSLQDGVPSRFSGSGSGTEFTLTISSLQPEDEATYYCAGPHKYPLTFGGGTKVEIK
# notes: also called Fc-less TandAb BCMA/CD16A
# B2: CD16A/BCMA antibody I (bispecific antibody, human IgG1, kappa)
# heavy: EVQLLESGGGLVQPGGSLRLSCAASGFTFSNYDMAWVRQAPGKGLEWVSSISTRGDITSYRDSVKGRFTISRDNSKNTLYLQMNSLRAEDTAVYYCARQDYYTDYMGFAYWGQGTLVTVSSASTKGPSVFPLAPSSKSTSGGTAALGCLVKDYFPEPVTVSWNSGALTSGVHTFPAVLQSSGLYSLSSVVTVPSSSLGTQTYICNVNHKPSNTKVDKKVEPKSCDKTHTCPPCPAPEFEGGPSVFLFPPKPKDTLMISRTPEVTCVVVAVSHEDPEVKFNWYVDGVEVHNAKTKPREEQYNSTYRVVSVLTVLHQDWLNGKEYKCKVSNKALPAPIEKTISKAKGQPREPQVYTLPPSREEMTKNQVSLTCLVKGFYPSDIAVEWESNGQPENNYKTTPPVLDSDGSFFLYSKLTVDKSRWQQGNVFSCSVMHEALHNHYTQKSLSLSPGGGGGSGGGGSGGGGSGGGGSGGGGSGGGGSSYVLTQPSSVSVAPGQTATISCGGHNIGSKNVHWYQQRPGQSPVLVIYQDNKRPSGIPERFSGSNSGNTATLTISGTQAMDEADYYCQVWDNYSVLFGGGTKLTVLGGSGGSGGSGGSGGSGGSGGSQVQLVQSGAEVKKPGESLKVSCKASGYTFTSYYMHWVRQAPGQGLEWMGAIEPMYGSTSYAQKFQGRVTMTRDTSTSTVYMELSSLRSEDTAVYYCARGSAYYYDFADYWGQGTLVTVSS
# light: AIQMTQSPSSLSASVGDRVTITCRASEDIYNGLAWYQQKPGKAPKLLIYGASSLQDGVPSRFSGSGSGTEFTLTISSLQPEDEATYYCAGPHKYPLTFGGGTKVEIKRTVAAPSVFIFPPSDEQLKSGTASVVCLLNNFYPREAKVQWKVDNALQSGNSQESVTEQDSKDSTYSLSSTLTLSKADYEKHKVYACEVTHQGLSSPVTKSFNRGEC
# notes: also called scFv-IgAb I BCMA/CD16a; BCMA/CD16A antibody I
# B3: CD16A/BCMA antibody III (bispecific antibody)
# chain 1: DKTHTCPPCPAPEFEGGPSVFLFPPKPKDTLMISRTPEVTCVVVAVSHEDPEVKFNWYVDGVEVHNAKTKPREEQYNSTYRVVSVLTVLHQDWLNGKEYKCKVSNKALPAPIEKTISKAKGQPREPQVYTLPPSREEMTKNQVSLTCLVKGFYPSDIAVEWESNGQPENNYKTTPPVLDSDGSFFLTSKLTVDKSRWQQGNVFSCSVMHEALHNHYTQKSLSLSPGGGGGSGGGGSSYVLTQPSSVSVAPGQTATISCGGHNIGSKNVHWYQQRPGQSPVLVIYQDNKRPSGIPERFSGSNSGNTATLTISGTQAMDEADYYCQVWDNYSVLFGGGTKLTVLGGSGGSQVQLVQSGAEVKKPGESLKVSCKASGYTFTSYYMHWVRQAPGQGLEWMGAIEPMYGSTSYAQKFQGRVTMTRDTSTSTVYMELSSLRSEDTAVYYCARGSAYYYDFADYWGQGTLVTVSSGGSGGSGGSGGSGGSGGSSYVLTQPSSVSVAPGQTATISCGGHNIGSKNVHWYQQRPGQSPVLVIYQDNKRPSGIPERFSGSNSGNTATLTISGTQAMDEADYYCQVWDNYSVLFGGGTKLTVLGGSGGSQVQLVQSGAEVKKPGESLKVSCKASGYTFTSYYMHWVRQAPGQGLEWMGAIEPMYGSTSYAQKFQGRVTMTRDTSTSTVYMELSSLRSEDTAVYYCARGSAYYYDFADYWGQGTLVTVSSAAAGSHHHHHH
# chain 2: EVQLLESGGGLVQPGGSLRLSCAASGFTFSNYDMAWVRQAPGKGLEWVSSISTRGDITSYRDSVKGRFTISRDNSKNTLYLQMNSLRAEDTAVYYCARQDYYTDYMGFAYWGQGTLVTVSSGGGGSGGGGSGGGGSAIQMTQSPSSLSASVGDRVTITCRASEDIYNGLAWYQQKPGKAPKLLIYGASSLQDGVPSRFSGSGSGTEFTLTISSLQPEDEATYYCAGPHKYPLTFGGGTKVEIKDKTHTCPPCPAPEFEGGPSVFLFPPKPKDTLMISRTPEVTCVVVAVSHEDPEVKFNWYVDGVEVHNAKTKPREEQYNSTYRVVSVLTVLHQDWLNGKEYKCKVSNKALPAPIEKTISKAKGQPREPQVYTLPPSREEMTKNQVSLYCLVKGFYPSDIAVEWESNGQPENNYKTTPPVLDSDGSFFLYSKLTVDKSRWQQGNVFSCSVMHEALHNHYTQKSLSLSPG
# notes: also called KiH-scDb-Fc BCMA/CD16a
# B4: anti-CD16A Fv of SEQ ID NOs:1 and 2 (scFv)
# chain 1: QVQLVQSGAEVKKPGESLKVSCKASGYTFTSYYMHWVRQAPGQGLEWMGIINPSGGSTSYAQKFQGRVTMTRDTSTSTVYMELSSLRSEDTAVYYCARGSAYYYDFADYWGQGTLVTVSS
# chain 2: SYVLTQPSSVSVAPGQTATISCGGHNIGSKNVHWYQQRPGQSPVLVIYQDNKRPSGIPERFSGSNSGNTATLTISGTQAMDEADYYCQVWDNYSVLFGGGTKLTVL
# notes: Measured as purified scFv
# B5: scDb-Tribody_01 (other)
# VH: B4 chain 1
# VL: B4 chain 2
# notes: Trispecific; LSIV21 scDb VL-VL-VH-VH; HSA(N1) Fab, EGFR; no hinge; no Fc; Chains: anti-CD16A Fv only
# B6: IgG1 Fc (silenced, L234F/L235E/D265A) (antibody)
# heavy: ASTKGPSVFPLAPSSKSTSGGTAALGCLVKDYFPEPVTVSWNSGALTSGVHTFPAVLQSSGLYSLSSVVTVPSSSLGTQTYICNVNHKPSNTKVDKKVEPKSCDKTHTCPPCPAPEFEGGPSVFLFPPKPKDTLMISRTPEVTCVVVAVSHEDPEVKFNWYVDGVEVHNAKTKPREEQYNSTYRVVSVLTVLHQDWLNGKEYKCKVSNKALPAPIEKTISKAKGQPREPQVYTLPPSRDELTKNQVSLTCLVKGFYPSDIAVEWESNGQPENNYKTTPPVLDSDGSFFLYSKLTVDKSRWQQGNVFSCSVMHEALHNHYTQKSLSLSPGK
# notes: also called human IgG1 Fc-silenced
# Legend:
# [1] = biological target: human CD16A-158V and cynomolgus CD16 (value not tied to one of the two); assay: SPR, 50 nM analyte, receptor captured, 3 h dissociation
# [2] = biological target: human CD16A (FcγRIIIA) on primary human NK cells (human) (UniProt P08637); assay: flow cytometry on primary human NK cells, 37 C, buffer
# Chain of human CD16A (FcγRIIIA) on primary human NK cells (human) (P08637 17-254): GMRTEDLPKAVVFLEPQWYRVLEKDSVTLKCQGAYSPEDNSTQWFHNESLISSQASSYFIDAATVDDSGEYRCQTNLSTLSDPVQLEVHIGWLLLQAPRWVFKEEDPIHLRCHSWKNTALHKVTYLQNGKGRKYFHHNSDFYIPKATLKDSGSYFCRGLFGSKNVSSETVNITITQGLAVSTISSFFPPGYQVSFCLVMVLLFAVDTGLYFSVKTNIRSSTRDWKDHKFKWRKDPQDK
# [3] = biological target: Human CD16A-158V ECD-monomeric Fc fusion antigen (human) (UniProt P08637); assay: SPR (Biacore T200), receptor-mono-Fc captured, 1:1 model
# Chain of Human CD16A-158V ECD-monomeric Fc fusion antigen (human) (P08637 17-208 F176V): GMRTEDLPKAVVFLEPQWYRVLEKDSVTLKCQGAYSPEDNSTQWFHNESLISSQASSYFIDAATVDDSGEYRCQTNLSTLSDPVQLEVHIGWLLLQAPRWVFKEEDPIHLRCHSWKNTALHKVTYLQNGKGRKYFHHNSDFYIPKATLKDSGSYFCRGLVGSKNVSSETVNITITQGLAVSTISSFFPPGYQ
# [4] = biological target: Cynomolgus CD16A ECD-monomeric Fc fusion antigen (cynomolgus) (UniProt Q8SPW2); assay: ELISA, antigen coated at 1.5 µg/mL (32 nM), scFv titrated
# Chain of Cynomolgus CD16A ECD-monomeric Fc fusion antigen (cynomolgus) (Q8SPW2 17-208): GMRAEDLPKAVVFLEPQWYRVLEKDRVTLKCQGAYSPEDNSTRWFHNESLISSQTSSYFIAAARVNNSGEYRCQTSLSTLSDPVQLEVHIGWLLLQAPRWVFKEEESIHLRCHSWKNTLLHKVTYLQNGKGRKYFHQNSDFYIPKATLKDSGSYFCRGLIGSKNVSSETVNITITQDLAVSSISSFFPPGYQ
# [5] = biological target: Human CD16A-158F ECD-monomeric Fc fusion antigen (human) (UniProt P08637); assay: as above
# Chain of Human CD16A-158F ECD-monomeric Fc fusion antigen (human) (P08637 17-208): as the sequence (P08637 17-208 F176V) above, with V160F counted along it
# [6] = biological target: Human CD16A-158V ECD-monomeric Fc fusion antigen (human) (UniProt P08637); assay: as above
# [7] = biological target: Human CD16A-158V ECD-monomeric Fc fusion antigen (human) (UniProt P08637); assay: ELISA, CD16 antigen coated at 0.5 µg/mL (10 nM), without competition
# [8] = biological target: Human CD16A-158V ECD-monomeric Fc fusion antigen (human) (UniProt P08637); assay: ELISA, CD16 antigen coated at 0.5 µg/mL (10 nM), competitor 8-10 nM 3G8 IgG
# [9] = biological target: human CD16A (FcγRIIIA) on primary human NK cells (human) (UniProt P08637); assay: flow cytometry on primary human NK cells, 37 C, with 10 mg/mL polyclonal human IgG
# [10] = biological target: T1, B-cell maturation antigen (BCMA); assay: flow cytometry on Raji cells (low BCMA), APC-A histogram, % of Max
# [11] = biological target: T1, B-cell maturation antigen (BCMA); assay: not stated; binding to BCMA
# CD16A = biological target: T2, CD16A (human, UniProt P08637 17-208); assay: not stated; binding to CD16A
# T2 construct: also called CD16A antigen; FcγRIIIA
# T2 sequence (P08637 17-208 limits assumed): as the sequence (P08637 17-208 F176V) above, with V160F counted along it
# [12] = biological target: T3, human CD16A (FcγRIIIA) on primary human NK cells (human, UniProt P08637 17-254); assay: flow cytometry on freshly prepared human NK cells, DyLight650-labelled antibody, in the presence of 10 mg/mL SCIG (Hizentra), delta gMFI
# T3 construct: whole, on cells
# T3 sequence (P08637 17-254): as the sequence (P08637 17-254) above
# Experimental: Fresh prepared human NK cells were pre-incubated for 1-hours at 37 C with and without 10 mg/mL of SCIG (Hizentra), then stained with DyLight650 labeled anti-AFM26/CD16a at indicted concentrations. […] In FIGS. 40C and 40D, human NK cells were isolated from a healthy human blood donor. NK (FIG. 40D) and MM.1S cells (FIG. 40C) were preincubated separately in 50% human autologous serum for 2 hours prior to assay setup. NK cells were co-cultured with MM.15 tumor cell line at an approximate E:T ration of 5, and exposed to 10-fold serial diluted test articles from 0.1-100nM for approximately 20 hours at 37 C with 5% CO₂. Antibody staining with CD138 and CD56 followed by FACS were used to monitor cytotoxicity of MM.15 target cells and NK survival. Data were analyzed with the software programs FlowJo and GraphPad Prism 6.
# [13] = biological target: human CD16A (SEQ ID NO:48) (human, UniProt P08637 17-208); assay: SPR (Biacore T200), purified scFv, monovalent binding affinity; human CD16A
# Chain of human CD16A (SEQ ID NO:48) (P08637 17-208 limits assumed): as the sequence (P08637 17-208 F176V) above, with V160F counted along it
# [14] = biological target: cynomolgus CD16A (SEQ ID NO:49) (cynomolgus, UniProt Q8SPW2 17-208); assay: SPR (Biacore T200), purified scFv, monovalent binding affinity; cynomolgus CD16A
# Chain of cynomolgus CD16A (SEQ ID NO:49) (Q8SPW2 17-208 limits assumed): as the sequence (Q8SPW2 17-208) above
# [15] = biological target: T4, biotinylated, recombinant human CD16A(48R-158V) fused to human IgG1 Fc portion (human, UniProt P08637 17-208, limits assumed, biotinylated); assay: ELISA, antibody coated, soluble biotinylated CD16A-Fc titrated
# T4 construct: also called soluble CD16A antigen; recombinant human CD16A soluble antigen; not shown: human IgG1 Fc portion
# T4 sequence (P08637 17-208 L66R/F176V limits assumed): as the sequence (P08637 17-208 F176V) above, with L50R counted along it
# [16] = biological target: T5, Human CD16A-158F ECD-monomeric Fc fusion antigen (human, UniProt P08637 17-208, biotinylated in SPR); assay: SPR (Biacore T200), receptor-mono-Fc captured, 1:1 model
# T5 construct: extracellular domain; not shown: monomeric Fc (Ying et al. 2012) fusion partner, Avi tag in SPR
# T5 sequence (P08637 17-208): as the sequence (P08637 17-208 F176V) above, with V160F counted along it
# Experimental: IgGs and scFvs were prepared in HBS-P+buffer at indicated concentration series and are injected to reference surfaces (Fc 1, Fc 3) and receptor captured surface (Fc 2, Fc 4) at a flow rate of 40 μL/min (association time 180 s, dissociation time 300 s). […] Data were referenced by subtraction of signals from reference surfaces (Fc 2-1, Fc 4-3) and zero concentration (buffer control) signals. Kinetic evaluation was performed by fitting data to a 1:1 binding model (Rmax and RI locally fitted) using Biacore T200 Evaluation Software (v3.1). […] Referenced curves were normalized to each curves maximum and overlaid. For investigation of receptor retention via qualitative dissociation phase comparison of monovalent and bivalent CD16A-binding antibodies or ligands, biotinylated mono-Fc(silent)-Avi-tagged receptors were prepared in HBS-P+and captured (human CD16A-158V approx. 160RU, cynomolgus CD16 approx. 320 RU) in flow cells Fc 2 and […].
# [17] = biological target: T6, Human CD16A-158V ECD-monomeric Fc fusion antigen (human, UniProt P08637 17-208); assay: SPR multi-cycle kinetics (Biacore T200), 4-fold dilution series over captured human CD16A-158V
# T6 construct: extracellular domain; also called CD16A-158V ECD-Fc fusion antigen; biotinylated mono-Fc(silent)-Avi-tagged receptor; not shown: monomeric Fc (Ying et al. 2012) fusion partner, Avi tag in SPR
# T6 sequence (P08637 17-208 F176V): as the sequence (P08637 17-208 F176V) above
# Experimental: IgGs and scFvs were prepared in HBS-P+buffer at indicated concentration series and are injected to reference surfaces (Fc 1, Fc 3) and receptor captured surface (Fc 2, Fc 4) at a flow rate of 40 μL/min (association time 180 s, dissociation time 300 s). […] Data were referenced by subtraction of signals from reference surfaces (Fc 2-1, Fc 4-3) and zero concentration (buffer control) signals. Kinetic evaluation was performed by fitting data to a 1:1 binding model (Rmax and RI locally fitted) using Biacore T200 Evaluation Software (v3.1).
molecule,measurement,setting,value
"IgG1 Fc (enhanced, S239D/I332E) (from UniProt P01857 1-330) (antibody)",percent remaining on the receptor after 3 h of dissociation,[1],10%
scFv 3G8,Kd,[2],3.8 nM
same,Kd,[3],8.6 nM
same,EC50,[4],0.87 nM
same,EC50,[5],0.58 nM
same,EC50,[6],0.33 nM
same,EC50,[7],0.9 nM
same,EC50,[8],19.7 nM
same,Kd,[9],64.6 nM
B1,binding result,[10],binds
B2,Kd,[11],~2 nM
same,Kd,CD16A,~16 nM
same,EC50 (read off the curve),[12],~40 nM
B3,binding result,[10],binds
B4,Kd,[13],40.5 nM
same,Kd,[14],132 nM
B5,EC50,[15],0.65 nM
B6,Kd,[16],34700 nM
same,koff,[16],0.71 s⁻¹
same,kon,[16],20400 M⁻¹ s⁻¹
same,binding result,[17],no binding
